From patent publication US20230391845A1, “GLP-1, GIP AND GLUCAGON RECEPTOR TRIPLE AGONISTS” (priority 2020, published 2023) come the findings set out here.

Where two headings read alike, the source gives them in different places. *1 amine or outer side, *2 acyl side, *3 side chain or, on linkers, in order; H or OH if unused. Where a SMILES comes first, the peptide text is derived from it. Where no end group is shown, it is not given here. Side-chain parts run from the residue outwards. [ ]: non-standard residue; d: D form. The star is where a group is joined. C20 diacid = O=C(O)CCCCCCCCCCCCCCCCCCC(=O)*; C18 diacid = O=C(O)CCCCCCCCCCCCCCCCC(=O)*; γGlu = O=C(O)[C@H](CCC(=O)[*:2])N[*:1]; εLys = N[C@@H](CCCCN[*:1])C(=O)[*:2]; Aib = CC(C)(N)C(=O)O

For data set [1], the target named is T1, human Gcg receptor (Homo sapiens, UniProt P47871).
T1 construct: expressed in transfected cells; host or cells: BHK cells (parent line BHKTS13) containing CRE luciferase
T1 sequence (P47871 26-477): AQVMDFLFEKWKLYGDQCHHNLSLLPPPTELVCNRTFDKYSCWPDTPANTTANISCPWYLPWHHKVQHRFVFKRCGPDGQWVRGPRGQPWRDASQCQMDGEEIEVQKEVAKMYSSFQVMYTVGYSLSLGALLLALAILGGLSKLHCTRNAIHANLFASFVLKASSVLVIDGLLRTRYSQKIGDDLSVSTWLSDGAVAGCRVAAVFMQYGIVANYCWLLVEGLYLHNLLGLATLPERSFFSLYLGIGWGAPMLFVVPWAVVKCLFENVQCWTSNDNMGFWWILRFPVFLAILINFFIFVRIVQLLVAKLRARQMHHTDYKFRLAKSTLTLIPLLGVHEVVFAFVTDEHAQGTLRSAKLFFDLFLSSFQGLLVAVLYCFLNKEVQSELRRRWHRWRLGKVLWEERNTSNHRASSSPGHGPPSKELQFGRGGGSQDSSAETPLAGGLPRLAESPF
As to the kind of experiment: In vitro functional potency (CRE luciferase; whole cells), human GcgR. The settings on record: BHK CRE luc2P hGcgR whole cells; Table 2; read-out: hGcgR CRE Luc EC50. Format: cell-based.
Description: The purpose of this example is to test the functional activity, or potency, of the compounds in vitro at the human and mouse GLP-1, GIP, and Gcg receptors. The in vitro functional potency is the measure of target receptor activation in a whole cell assay.
In vitro functional potency was determined by measuring the response of the target receptor in a reporter gene assay in individual cell lines. The assay was performed in stably transfected BHK cell lines that expresses one of the following G-protein coupled receptors: human GLP-1 receptor, human GIP receptor, human Gcg receptor, mouse GLP-1 receptor, mouse GIP receptor, or mouse Gcg receptor; and where each cell line contains the DNA for the cAMP response element (CRE) coupled to a promoter and the gene for firefly luciferase (CRE luciferase). When the respective receptor is activated, it results in the production of cAMP, which in turn results in expression of the luciferase protein. When assay incubation is completed, luciferase substrate (luciferin) is added resulting in the enzymatic conversion of luciferin to oxyluciferin and producing bioluminescence. The luminescence is measured as the readout for the assay.
The cells lines used in these assays were BHK cells with BHKTS13 as a parent cell line. The cell lines were derived from a clone containing the CRE luciferase element and were established by further transfection with the respective receptor to obtain the relevant cell line.
The cells were cultured at 37° C. with 5% CO2 in Cell Culture Medium. They were aliquoted and stored in liquid nitrogen. The cells were kept in continuous culture and were seeded out the day before each assay.
GLP-1R and GcgR Cell Culture Medium consisted of DMEM medium with 10% FBS, 500 µg/mL G418, and 300 µg/mL hygromycin. GIPR Cell Culture Medium consisted of DMEM medium with 10% FBS, 400 µg/mL G418, and 300 µg/mL hygromycin. Assay Buffer consisted of DMEM w/o phenol red, 10 mM Hepes, 1× Glutamax, 1% ovalbumin, and 0.1% Pluronic F-68.
• 1) Cells were plated at 5000 cells/well and incubated overnight in the assay plate. • 2) Cells were washed once in DPBS. • 3) Stocks of the test compounds and reference compounds in concentrations ranging from 100-300 pM were diluted 1:150 in Assay Buffer.
The data from the microtiter plate reader was first regressed in an Excel in order to calculate the x-axis, log scale concentrations based on the individual test compound's stock concentration and the dilutions of the assay. […] The software performs a non-linear regression (log(agonist) vs response). A minimum of two replicates was measured for each sample. The reported values are averages of the replicates.

Data set [2] can be described thus: Pharmacokinetic study in minipigs, i.v. administration. Details: species or system Göttingen minipigs. The settings on record: female, Göttingen, minipig, in vivo, iv; minipigs, i.v. administration, harmonic mean; read-out: Terminal half-life t1/2 (converted). Put shortly: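 Female Göttingen minipigs (7-14 months, 16-35 kg), fasted ~18 h pre-dose to 4 h post-dose, received i.v. injections of usually 1.5-2 nmol/kg via central venous catheter. Plasma sampled up to 14 days, assayed by ELISA or LCMS; terminal half-life (harmonic mean) from non-compartmental analysis.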

Data set [3] is described as follows: Maximal efficacy study in DIO mice, daily s.c. dose titration for up to 60 days (body weight, food intake). Format: in vivo, C57BL/6J male mice. The following applies: for Absolute BW (grams) Day 0: Day 0 (baseline); for Absolute BW (grams) Day 0 / Absolute BW (grams) Last day of treatment / Change in BW (%) Last day of treatment: mean ± SEM; for Absolute BW (grams) Last day of treatment / Change in BW (%) Last day of treatment / Average food intake per mouse (grams/day): s.c. once daily; for Absolute BW (grams) Last day of treatment / Change in BW (%) Last day of treatment: dose titration of Table 4, last day of treatment; for Average food intake per mouse (grams/day): dose titration of Table 4, mean ± SEM, n = 1-2. Here is the method:
The purpose of this example is to assess the in vivo effect of selected triple agonists on pharmacodynamic parameters in diet-induced obese (DIO) mice. The animals were treated once daily via subcutaneous injection with a liquid formulation of the triple agonist to be tested to assess effects on body weight, foot intake, and glucose tolerance.
C57BL/6J male mice were purchased from Jackson Laboratories at approximately 8 weeks of age. Mice were group housed and fed a high-fat, high-sugar diet from Research Diets (D12331). Mice were maintained on this diet for 12 weeks prior to initializing the pharmacology studies. Mice exceeding a measured body weight of 50 grams were considered diet-induced obese (DIO) and included in pharmacology studies. Mice were exposed to a controlled 12 h:12 h light:dark cycle at ambient room temperature (22° C.) with ab libitum access to food and water. Studies were approved by and performed according to the guidelines of the Institutional Animal Care and Use Committee of the University of Cincinnati.
All compounds in the study were formulated in the following buffer: 50 mM phosphate; 70 mM sodium chloride; 0.05% Tween-80, pH 7.4. Dosing solutions were formulated in glass vials and stored at 2-8° C. Dosing solutions were brought to room temperature before dosing and returned to 2-8° C. after dosing.
DIO mice were distributed into groups (n=8 per group) such that statistical variations in the mean and standard deviations of fat mass and body weight were minimized between groups. The animals were grouped to receive treatment as follows: Vehicle or GLP-1/GIP/Gcg receptor triple agonists as described herein, where vehicle is 50 mM phosphate, 70 mM sodium chloride; 0.05% (v/v) Tween-80, pH 7.4. The test compounds were dissolved in the vehicle, to stock concentrations of […], then diluted 50- to 200-fold in the vehicle to achieve the desired dosing solution concentrations. Animals were dosed subcutaneously once daily in the morning for each day of treatment with dosing solution at a volume of 2-5 μL per gram of body weight as necessary to achieve the desired dose (e.g. 0.3 nmol/kg, 1.0 nmol/kg, or 3.0 nmol/kg).
Body weight (BW) and food intake were measured immediately prior to dosing each day. The percent change in body was calculated individually for each mouse based on initial body weight prior to the first injection.
In one study, DIO mice received a daily subcutaneous dose for up to 60 days of one of the following: vehicle, Compound No. 21, Compound No. 30, or Compound No. 33. The dose of each compound was up-titrated to maximal efficacy based on the titration schedule included in Table 4. Mice that achieved body weight normalization, defined as a body weight of 22.5 g or less, were voluntarily removed from the study. All triple agonist compounds tested resulted is substantially greater reductions of body weight and food intake than vehicle. […] This may be explained by the similar GLP-1R and GIPR in vitro potency but reduced in vitro GcgR potency of Compound No. 21 compared to Compound No. 30 and Compound No. 33 when investigated with the protocol described in Example 2 except using the mouse-specific receptors.

Data set [4] addresses T2, human glucagon receptor (human, UniProt P47871 26-477). Kind of data set: cell-based or functional assay.
Data set [5] concerns the target T3, human glucagon-like peptide 1 receptor (human, UniProt P43220 24-463). As to the kind of experiment: cell-based or functional assay.
The target in data set [6] is T4, human glucose-dependent insulinotropic polypeptide receptor (human, UniProt P48546 22-466).
T4 sequence (looked up): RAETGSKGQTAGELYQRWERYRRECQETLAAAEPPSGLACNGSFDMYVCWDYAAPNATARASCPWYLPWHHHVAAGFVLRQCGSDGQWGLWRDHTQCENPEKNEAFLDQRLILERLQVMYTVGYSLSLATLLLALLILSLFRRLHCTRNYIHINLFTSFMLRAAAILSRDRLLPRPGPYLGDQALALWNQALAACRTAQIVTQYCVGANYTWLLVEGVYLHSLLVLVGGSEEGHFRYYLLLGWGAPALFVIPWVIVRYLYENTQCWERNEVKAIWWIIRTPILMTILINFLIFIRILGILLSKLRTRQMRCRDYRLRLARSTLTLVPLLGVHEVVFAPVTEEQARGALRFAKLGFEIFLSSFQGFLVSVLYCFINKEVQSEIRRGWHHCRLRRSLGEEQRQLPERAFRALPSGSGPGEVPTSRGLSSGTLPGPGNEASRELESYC
As to the kind of experiment: cell-based or functional assay.

The target in data set [7] is T2, human glucagon receptor. Kind of data set: cell-based or functional assay. This is another data set of the same source.
The target in data set [8] is T3, human glucagon-like peptide 1 receptor. Kind of data set: cell-based or functional assay. This is another data set of the same source.
The target in data set [9] is T4, human glucose-dependent insulinotropic …. Kind of data set: cell-based or functional assay. The source holds these as a separate data set.

In general, EC50 refers to the concentration that produces a half-maximal response.

T2 sequence (P47871 26-477): as the sequence (P47871 26-477) above

With `CC[C@H](C)[C@H](NC(=O)[C@H](CO)NC(=O)[C@H](Cc1ccc(O)cc1)NC(=O)[C@H](CC(=O)O)NC(=O)[C@H](CO)NC(=O)[C@@H](NC(=O)[C@H](Cc1ccccc1)NC(=O)[C@@H](NC(=O)CNC(=O)[C@H](Cc1c[nH]cn1)NC(=O)C(C)(C)NC(=O)[C@@H](N)Cc1c[nH]cn1)[C@@H](C)O)[C@@H](C)O)C(=O)N[C@@H](CC(C)C)C(=O)N[C@@H](CC(C)C)C(=O)N[C@@H](CCC(=O)O)C(=O)N[C@@H](CCCCNC(=O)[C@@H](N)CCCCNC(=O)[C@@H](N)CCCCNC(=O)CC[C@H](NC(=O)CCCCCCCCCCCCCCCCC(=O)O)C(=O)O)C(=O)N[C@@H](CCC(N)=O)C(=O)N[C@@H](C)C(=O)N[C@@H](C)C(=O)N[C@@H](Cc1c[nH]cn1)C(=O)N[C@@H](CCC(=O)O)C(=O)N[C@@H](Cc1ccccc1)C(=O)N[C@H](C(=O)N[C@@H](CCC(N)=O)C(=O)N[C@@H](Cc1c[nH]c2ccccc12)C(=O)N[C@@H](CC(C)C)C(=O)N[C@@H](CC(C)C)C(=O)N[C@@H](CCC(=O)O)C(=O)NCC(=O)NCC(=O)N1CCC[C@H]1C(=O)N[C@@H](CO)C(=O)N[C@@H](CO)C(=O)NCC(=O)N[C@@H](C)C(=O)N1CCC[C@H]1C(=O)N1CCC[C@H]1C(=O)N1CCC[C@H]1C(=O)N[C@@H](CO)C(=O)O)C(C)C` [Compound No. 56] (H-H[Aib]HGTFTSDYSILLEK([εLys-εLys-γGlu-C18 diacid])QAAHEFVQWLLEGGPSSGAPPPS-OH), the EC50 in data set [1] was 6.4 pM.

As to `CC[C@H](C)[C@H](NC(=O)[C@H](CO)NC(=O)[C@H](Cc1ccc(O)cc1)NC(=O)[C@H](CC(=O)O)NC(=O)[C@H](CO)NC(=O)[C@@H](NC(=O)[C@H](Cc1ccccc1)NC(=O)[C@@H](NC(=O)CNC(=O)[C@H](Cc1c[nH]cn1)NC(=O)C(C)(C)NC(=O)[C@@H](N)Cc1c[nH]cn1)[C@@H](C)O)[C@@H](C)O)C(=O)N[C@@H](Cc1ccc(O)cc1)C(=O)N[C@@H](CC(C)C)C(=O)N[C@@H](CCC(=O)O)C(=O)N[C@@H](CCCCNC(=O)[C@@H](N)CCCCNC(=O)[C@@H](N)CCCCNC(=O)CC[C@H](NC(=O)CCCCCCCCCCCCCCCCCCC(=O)O)C(=O)O)C(=O)N[C@@H](CCCCN)C(=O)N[C@@H](C)C(=O)N[C@@H](C)C(=O)NC(C)(C)C(=O)N[C@@H](CCC(=O)O)C(=O)N[C@@H](Cc1ccccc1)C(=O)N[C@H](C(=O)N[C@@H](CCC(N)=O)C(=O)N[C@@H](Cc1c[nH]c2ccccc12)C(=O)N[C@@H](CC(C)C)C(=O)N[C@@H](CC(C)C)C(=O)N[C@@H](CCC(=O)O)C(=O)NCC(=O)NCC(=O)N1CCC[C@H]1C(=O)N[C@@H](CO)C(=O)N[C@@H](CO)C(=O)NCC(=O)N[C@@H](C)C(=O)N1CCC[C@H]1C(=O)N1CCC[C@H]1C(=O)N1CCC[C@H]1C(=O)N[C@@H](CO)C(N)=O)C(C)C` [Compound No. 33] (H-H[Aib]HGTFTSDYSIYLEK([εLys-εLys-γGlu-C20 diacid])KAA[Aib]EFVQWLLEGGPSSGAPPPS-NH2), the half-life in data set [2] is 47 h. In data set [3], the “Absolute BW (grams) Day 0” value came to 54.9 ± 2.6 grams, the “Absolute BW (grams) Last day of treatment” value is on record as 24.8 ± 1.4 grams, the “Change in BW (%) Last day of treatment” value was −54.5 ± 3.5% and the “Average food intake per mouse (grams/day)” value turned out to be 1.38 ± 0.25 grams/day.

Take `CC[C@H](C)[C@H](NC(=O)[C@H](CO)NC(=O)[C@H](Cc1ccc(O)cc1)NC(=O)[C@H](CC(=O)O)NC(=O)[C@H](CO)NC(=O)[C@@H](NC(=O)[C@H](Cc1ccccc1)NC(=O)[C@@H](NC(=O)CNC(=O)[C@H](Cc1c[nH]cn1)NC(=O)C(C)(C)NC(=O)[C@@H](N)Cc1c[nH]cn1)[C@@H](C)O)[C@@H](C)O)C(=O)N[C@@H](Cc1ccc(O)cc1)C(=O)N[C@@H](CC(C)C)C(=O)N[C@@H](CCC(=O)O)C(=O)N[C@@H](CCCCNC(=O)[C@@H](N)CCCCNC(=O)[C@@H](N)CCCCNC(=O)CC[C@H](NC(=O)CCCCCCCCCCCCCCCCCCC(=O)O)C(=O)O)C(=O)N[C@@H](CCCCN)C(=O)N[C@@H](Cc1ccc(O)cc1)C(=O)N[C@@H](C)C(=O)NC(C)(C)C(=O)N[C@@H](CCC(=O)O)C(=O)N[C@@H](Cc1ccccc1)C(=O)N[C@H](C(=O)N[C@@H](CCC(N)=O)C(=O)N[C@@H](Cc1c[nH]c2ccccc12)C(=O)N[C@@H](CC(C)C)C(=O)N[C@@H](CC(C)C)C(=O)N[C@@H](CCC(=O)O)C(=O)NCC(=O)NCC(=O)N1CCC[C@H]1C(=O)N[C@@H](CO)C(=O)N[C@@H](CO)C(=O)NCC(=O)N[C@@H](C)C(=O)N1CCC[C@H]1C(=O)N1CCC[C@H]1C(=O)N1CCC[C@H]1C(=O)N[C@@H](CO)C(N)=O)C(C)C` [Compound No. 30] (H-H[Aib]HGTFTSDYSIYLEK([εLys-εLys-γGlu-C20 diacid])KYA[Aib]EFVQWLLEGGPSSGAPPPS-NH2; N-terminus assumed): in [2], the half-life was 78 h. In addition, in [3], the “Absolute BW (grams) Day 0” value is on record as 56.2 ± 1.3 grams, the “Absolute BW (grams) Last day of treatment” value worked out at 22.2 ± 0.3 grams, the “Change in BW (%) Last day of treatment” value was −60.5 ± 0.4% and the “Average food intake per mouse (grams/day)” value is 1.39 ± 0.13 grams/day.

B1: Compound No. 3 (peptide)
peptide: Y[Aib]QGTFTSDYSIYLDKQAA[Aib]KFVNWLLAGGPSSGAPPPS-NH2
modifications: not fully specified (residue 21); printed as Y-Aib-QGTFTSDYSIYLDKQAA-Aib-K[2-[2-[2-[[2-[2-[2-[[(4S)-4-carboxy-4-(17-carboxyheptadecanoylamino)butanoyl]amino]ethoxy]ethoxy]acetyl]amino]ethoxy]ethoxy]acetyl]-FVNWLLAGGPSSGAPPPS-NH2
Turning to B1, the “hGcgR CRE Luc EC50 (pM)” value in data set [4] and in data set [7] was 34.7 pM in each case. Also, the “hGLP-1R CRE Luc EC50 (pM)” value in data set [5] and in [8] was 5.4 pM in each case. The “hGIPR CRE Luc EC50 (pM)” value in data set [6] and in data set [9] was 27.5 pM throughout.

B2: Compound No. 2 (peptide)
peptide: Y[Aib]QGTFTSDYSIYLDKKAA[Aib]EFVNWLLAGGPSSGAPPPS-NH2
modifications: not fully specified (residue 17); printed as Y-Aib-QGTFTSDYSIYLDK-K[2-[2-[2-[[2-[2-[2-[[(4S)-4-carboxy-4-(17-carboxyheptadecanoylamino)butanoyl]amino]ethoxy]ethoxy]acetyl]amino]ethoxy]ethoxy]acetyl]-AA-Aib-EFVNWLLAGGPSSGAPPPS-NH2
On to B2, for which the “hGcgR CRE Luc EC50 (pM)” value in data set [4] and in data set [7] was 47.6 pM in each case. The “hGLP-1R CRE Luc EC50 (pM)” value in data set [5] and in [8] was 7.1 pM in each case. Further, the “hGIPR CRE Luc EC50 (pM)” value in data set [6] and in data set [9] was 49.8 pM each time.
